From patent publication US20250034594A1, “RNA-GUIDED GENOME RECOMBINEERING AT KILOBASE SCALE” (THE BOARD OF TRUSTEES OF THE LELAND STANFORD JUNIOR …, priority 2021, published 2025) come the findings set out here.

Holding throughout (type): cell-based
Experiment [1] relates to gene editing with Cas9 and dCas9. The experiment can be described thus: Screen of 322 new SSAP proteins, activity across all experiments (Cas9 and dCas9, Table 5). Also on record: scale not given here. In short, it runs like this: (§1)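 The 322 SSAP proteins were found in sequence data and then synthesized. Each was screened for gene editing activity when paired with Cas9 and with dCas9.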

For another experiment, the system named is gene editing with dCas9. The experiment can be described thus: Screen of 322 new SSAP proteins, gene editing activity with dCas9 (Table 5). Also on record: dCas9 with SSAP activity: scale not given here. In short, it runs like this: as §1
A further experiment has as its system gene editing with Cas9. The experiment can be described thus: Screen of 322 new SSAP proteins, gene editing activity with Cas9 (Table 5). On the set-up: Cas9 with SSAP activity: scale not given here. In outline:
as §1

B1: SSAP_24: SEQ ID NO: 193 (protein)
chain: TNNQIVEAKGDFLTNPQLLNSGIIRKYLDPQGKASDEELAYFIAQAKAQNLNPFTKEIYFIKYGTQPAQIVTAKSAFEKKADSHPQFDGKEAGVIYLMDGEIKYSKGAFIPKGAEILGGWAKVYRKDRTYPTETEVSFEEYDNSKIRARVKELTQQGKDVTYPVMNSYGKPIGENNWDTMPCVMIRKVALVSAYREAFPAELGASYEADEIQLDNTPKDVTPQESREDVVARKMAEIEQFNKEQEANHADPEPTQNEDPIQGELLDGELEY
On to B1, for which the “Activity across all experiments” value in experiment [1] is listed as −4.480. In the experiment on gene editing with dCas9, the “dCas9 with SSAP activity” value is on record as −5.319 and the “dCas9 with SSAP activity (normalized)” value was −0.711. In addition, in the experiment with gene editing with Cas9, the “Cas9 with SSAP activity” value is given as −3.642 and the “Cas9 with SSAP activity (normalized)” value is given as −0.681.

B2: SSAP_85: SEQ ID NO: 254 (protein)
chain: TASKQTDIFSFVSGGEDITITLADIKNYFCANATDQECVLFGQLCKANGLNPWLKEAYLIKYDKNAPAAMVTGKDAYMKRANEHPAFDGYEAGVKVYLPDVGQVEYREGTAYYEDLGEQLIGGYAKVYRKDRSRPYYEEVPLKEYDTKQSKWKTSPATMIRKVALVHALREAFPTNIQGMYDADETPYAADYEGSFREMDDPTPAPSMRGRIAPAPVADPLEDLEADVIEAGDVE
B2: the “Activity across all experiments” value in experiment [1] is on record as −2.702. Moreover, in the experiment on gene editing with dCas9, the “dCas9 with SSAP activity” value is recorded as −5.091 and the “dCas9 with SSAP activity (normalized)” value is listed as −1.071. In the experiment on gene editing with Cas9, the “Cas9 with SSAP activity” value is given as −0.312 and the “Cas9 with SSAP activity (normalized)” value is reported as −0.125.

B3: SSAP_247: SEQ ID NO: 416; Ruminococcus sp. CAG: 579 (protein, listed as Ruminococcus sp.)
chain: NERTNLQYAPAPVERFKECLNSHEIKARLKNSLKNNWTQFQTSMLDLYSGDAYLQKCDPMAVALECVKAATLDLPISKSLGFAYVVPYNNVPTFTLGYKGLIQLAQRTGQYRTINADVVYEGEIRGADKLSGMVDLSGERTGDEVVGYFAYFKLINGFEKMIYMTRAEAEKWRDDYSPSAKSKYSPWRTDFDKMALKTCIRRLISKYGIMSVEMQGVMTEEAEPRAAAAAKRAEETVQANANSKVIDIDAAPPAANESPAEAAPQPDF
With B3, the “Activity across all experiments” value in experiment [1] is listed as −1.027. Further, in the experiment on gene editing with dCas9, the “dCas9 with SSAP activity” value is on record as 0.549 and the “dCas9 with SSAP activity (normalized)” value amounted to 0.332. Moreover, in the experiment on gene editing with Cas9, the “Cas9 with SSAP activity” value is on record as −2.602 and the “Cas9 with SSAP activity (normalized)” value was −3.388.

B4: SSAP_156: SEQ ID NO: 325; Bacillus sp. AFS017336 (protein, listed as Bacillus sp.)
chain: ATNESLKNQITNKKTGEVPLTPAQQVSSYLKAYEGTFQQIAPKHFNTERFQRIALSEIRKNPKLLECSVPSLMSAVLQSVKLGLEPGLFGQAYLIPYGKEVQFQIGYRGLIELSQRSGRILKIQAREVYENDEFEVSYGIDDNIIHKPALDVDRGKVRLYYAVAWFKDGGAQFELMSISDVEKHRDKFSKTAKFGPWKDHFDEMAKKTVLKKLVKQLPMDVEFQEAVQEDETVRKTITDEPEILQAEFEIVDQPEISVE
B4: in experiment [1], the “Activity across all experiments” value was −2.272. In the experiment on gene editing with dCas9, the “dCas9 with SSAP activity” value was −5.389 and the “dCas9 with SSAP activity (normalized)” value was −0.877. For the same molecule, in the experiment with gene editing with Cas9, the “Cas9 with SSAP activity” value came out at 0.844 and the “Cas9 with SSAP activity (normalized)” value is on record as 2.230.

B5: SSAP_248: SEQ ID NO: 417; Peptoniphilus senegalensis (protein, listed as Peptoniphilus senegalensis)
chain: TNQIARKPVNEIKNVLSVPSVRNLFDNALADNAGAFVSSLIDLYGGDSYLQNCEPKDVVMEALKAATLKLPINKNLGFGYVVPFKNKNGKLVPTFIIGYKGLIQLAMRTGQYKAINSGIIYEGMEIKEDVLRGTLEIKGSKQSEKIKGYFAYFQLINGFEKALYMDVEEAADWGRKYSKSFAKGPWTTEFDAQAQKTCLRRLLSKYGVLSTEMQRLEKTEEDVDIAVGTIENNAVEELNIPSSQADYIVDEETGEILDDEEIVAPF
For the molecule B5, the “Activity across all experiments” value in experiment [1] is −3.063. In the experiment on gene editing with dCas9, the “dCas9 with SSAP activity” value is recorded as −5.272 and the “dCas9 with SSAP activity (normalized)” value was −0.814. Further, in the experiment on gene editing with Cas9, the “Cas9 with SSAP activity” value was −0.854 and the “Cas9 with SSAP activity (normalized)” value is reported as −1.210.

B6: SSAP_60: SEQ ID NO: 229 (protein)
chain: ASKNEAIEVSPAEIASVKEKPASIVKAEKAKKEPCALVKYEDAEGREVVLTREDIINTISSNPRITDKEIKLFIELARAQKLNPFTREIFITKYGDYPATFIVGKDVFTKRAQSNPLFKGMQAGIIVQRGNAVDQREGSATFGDEMLIGGWCKVYVQGYDVPIYDSVSFNEYAARKTDGTLNAMWASKPATMIRKVAIVHALREAFPSDFQGLYDQSEMGLSGQGGE
For B6, the “Activity across all experiments” value in experiment [1] came out at 0.534. For the same molecule, in the experiment on gene editing with dCas9, the “dCas9 with SSAP activity” value came out at 0.311 and the “dCas9 with SSAP activity (normalized)” value was 0.109. Further, in the experiment on gene editing with Cas9, the “Cas9 with SSAP activity” value stood at 0.757 and the “Cas9 with SSAP activity (normalized)” value was 0.560.

B7: SSAP_128: SEQ ID NO: 297; Viridibacillus sp. FSL H8-0123 (protein, listed as Viridibacillus sp.)
chain: ATNNALKEQMKQAPSKEVKPEQSLNTLLKRMGPEIQRALPKHMDADRIARIALTAVRNTPKLLDCDQMSFVAALMQSAQLGVEPNTGLGQAYLIPYGKQVQFQLGYKGLIDLAVRSGQYKAIYAHEVYEDDEFSFAYGLHKDLVHVPAPNPTGEPIGYYAVYHLQNGGYDFVYWTRERIDQHAHKFSMAVQKGWTSPWKTNFDAMAKKTVLKEVLKYAPKSIEMQKVVDADETVKTDVSDDMSNVIDVTDYTVMDQEQETIQEPTK
In the case of B7, the “Activity across all experiments” value in experiment [1] was −2.230. Besides, in the experiment with gene editing with dCas9, the “dCas9 with SSAP activity” value is reported as −5.299 and the “dCas9 with SSAP activity (normalized)” value is −0.965. Besides, in the experiment on gene editing with Cas9, the “Cas9 with SSAP activity” value is 0.839 and the “Cas9 with SSAP activity (normalized)” value is listed as 0.272.

B8: SSAP_61: SEQ ID NO: 230 (protein)
chain: ATSLKRAVTGDGKPATVQQLLTNPKIKSQIALALPQHLTPERLTRIVLTEIRRTPALAKCKPESLLAAVMQCAQLGLEPGGSLGHAWLMPFKNEVQFIIGYRGMIDLARRSGQVLSIEARGVYESDTFHVSFGLEPDLTHQPDWDPADRGKLAFVYAVARLKDGGFQFDVMSRAEVEKIRAQSPAGKSGPWVTHFEEMAKKTVIRRLFKYLPVSVEMARAVGLDEAAERGEQSDAIDADCVIESEEEATPEEKGDSAA
As to B8, the “Activity across all experiments” value in experiment [1] is −3.303. Besides, in the experiment on gene editing with dCas9, the “dCas9 with SSAP activity” value is recorded as −5.258 and the “dCas9 with SSAP activity (normalized)” value was −0.804. In the experiment on gene editing with Cas9, the “Cas9 with SSAP activity” value is given as −1.348 and the “Cas9 with SSAP activity (normalized)” value is −0.539.

B9: SSAP_13: SEQ ID NO: 182 (protein)
chain: ANELGIFSVDNLNMTTIKQYLDGGGKASDAELVLLINLCKQNNMNPFMKEVYFIKYGNQPAQIVVSRDFYRKRAFQNPNFVGIEVGVIVLNKDGVLEHNEGTFKTHEQELVGAWARVHLKNTEIPVYVAVSYDEYVQMKDGHPNKMWTNKPCTMLGKVAESQALRMAFPAEFSGTYGEEEFPEPEKEPREVNGVKEPDRAQIESFDKEDYAAKKIEELKEKAQPQKEVVEETGEVIDEEPLEGF
Take B9: the “Activity across all experiments” value in experiment [1] was −3.004. In the experiment with gene editing with dCas9, the “dCas9 with SSAP activity” value is given as −5.545 and the “dCas9 with SSAP activity (normalized)” value is reported as −0.758. In the experiment with gene editing with Cas9, the “Cas9 with SSAP activity” value is −0.463 and the “Cas9 with SSAP activity (normalized)” value is on record as −0.403.

B10: SSAP_99: SEQ ID NO: 268; Pseudomonas stutzeri (protein, listed as Pseudomonas stutzeri)
chain: STENVAPFSQKDMQQATGQQVKPRSPADSLAAMLASPKMKAQFAAALPKHMTAERMARIVTTEIRKTPALVKCDQHSFLGSVIQCAQLGLEPGNSLGHAYLLPYGNQVQLIIGYRGMIDLARRSGQIVSLSARTVREHDEFDYQLGLHEDLTHKPFEGEHAGEITHVYAVARLQGGGVQFEVMSKAQVEAVRAQSKAGKSGPWVSHWEEMAKKTVIRRLFKYLPVSVEIQRAVTLDEAAEAGLPQGNEYVFDGDFEVVNDASGAQQ
On to B10, for which the “Activity across all experiments” value in experiment [1] was −4.570. In the experiment on gene editing with dCas9, the “dCas9 with SSAP activity” value is listed as −5.333 and the “dCas9 with SSAP activity (normalized)” value is reported as −0.891. In the experiment with gene editing with Cas9, the “Cas9 with SSAP activity” value is on record as −3.807 and the “Cas9 with SSAP activity (normalized)” value was −0.873.

B11: SSAP_168: SEQ ID NO: 337; Romboutsia lituseburensis (protein, listed as Romboutsia lituseburensis)
chain: SNLKNVLKNQEDKGQGITVNPTYAMKQLMIKMKNDIDLALPKNLSSERFQKVSMSAFNNNEKLQNCEPTTFIAAMMQSAQLGLEPNTPLGQVYLIPHNLNGVDKVQFQVGYKGLLQLAHRSGKLKTLYAHEVKENDEFEIDYGLEQKLIHKPLLKGNRGDVIGYYAVYHLEPSGYSFEFMTYDEVAKHGKKYSKDFEGGIWEKDFDSMAKKTVIKKLLKYAPLSIEMQKAVAFDESVKSSIDSDMLLVESIGE
Consider B11, for which, in experiment [1], the “Activity across all experiments” value was −2.237. In the experiment with gene editing with dCas9, the “dCas9 with SSAP activity” value is −5.210 and the “dCas9 with SSAP activity (normalized)” value is listed as −0.836. In addition, in the experiment with gene editing with Cas9, the “Cas9 with SSAP activity” value came to 0.735 and the “Cas9 with SSAP activity (normalized)” value was determined as 1.158.

B12: SSAP_110: SEQ ID NO: 279; Aneurinibacillus tyrosinisolvens (protein, listed as Aneurinibacillus tyrosinisolvens)
chain: SDLKEKLEKRANETEAAPPSPAQTIAAYLKRMEPEIARALPKHMDVERLTRIALTTIRTNPRLLECTVPSLLGAVMQAAQLGLEPGLLGQCYIIPHGREATFIIGYKGMIDLARRSGNIKSIYAHDVRENDEFEYEYGLHPFLKHRPAMTDRGKFIGVYAVAHFNDGGYQFEFMPYEEIERRKLRSRSYKNGPWVTDYEEMAKKTVIRHMFKYLPLSVEIMRSAAQDETVRPDLTSDPVSIYERPIEGKIITAEDVQPEEIPNVPDAEQGDV
For B12, the “Activity across all experiments” value in experiment [1] is given as −3.889. Besides, in the experiment with gene editing with dCas9, the “dCas9 with SSAP activity” value is −5.104 and the “dCas9 with SSAP activity (normalized)” value is given as −1.491. In addition, in the experiment on gene editing with Cas9, the “Cas9 with SSAP activity” value is reported as −2.674 and the “Cas9 with SSAP activity (normalized)” value is given as −0.477.
